This passage reports fold amount co-immunoprecipitated, against WT-JMD and fold increase of the amount co-immunoprecipitated upon proteasome inhibition results from article PMC3365061.

This assay addresses K5,83R-JMD (mouse). Briefly: co-IP; RFP chimeras immunoprecipitated with rabbit polyclonal anti-RFP on Protein A beads (Figure 2C also with E2 antibody to the E-cadherin cytoplasmic domain) from MDCK extracts, 0.1% Triton X-100 in CSK buffer (50 mM NaCl, 300 mM sucrose, 10 mM Pipes pH 6.8, 3 mM MgCl2), 4°C; stable or transient expression; with or without 10 µM MG-132 for 4 h, 10 mM NEM in the extraction buffer, Src-GFP or Hakai-FLAG expression; blots for p120-catenin and tubulin.

Regarding p120-catenin (natural protein), the fold amount co-immunoprecipitated, against WT-JMD was determined as 10 fold and the fold increase of the amount co-immunoprecipitated upon proteasome inhibition is 0.4 fold.
